Source: the supplement of paper PMC11502859

Tested on: HEK293T
Test: median enrichment of reporter reads in eGFP-reduced (low/intermediate) vs eGFP-high sorted cells (eGFP-extension fusion abundance) (ratio); higher = stronger loss of eGFP-fusion protein abundance (more destabilising extension)
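Note: lentiviral eGFP-IRES-mCherry reporter pool sorted by FACS 96 h post-transduction, gated on mCherry-high cells, Illumina read counts normalized per million, median across four biological replicates.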

RRRRRRGRAAGGTAQATQGRPLRPGGQGGRPASGDRLPPGLWQDVPSEGYFEEPPGPGDREAPVSSMNALPRTQARASGVHSE [MSANTD1]
median enrichment: 0.682

LKKKKQQVMELHILVTQWTIIGSHWKSGKNPWRLSFSDILPNALLSRIFVSFCLIFWGVFVVVGLFFVFFF [PPP1R12A]
median enrichment: 5.8

LGEMSLSFLLPF [C10orf82]
median enrichment: 3.93

WKGRAQQCK [IRX2]
median enrichment: 0.459

WPLDVGKPCGPPLITSSPRMTAEPQASGAGLMYPNLGQHDCRSIQSLPAPSMKGPPKTVLGTQCVAGSPPS [MINDY4]
median enrichment: 0.736

SKHLKC [FAN1]
median enrichment: 0.578

YAVGTESEYF [GFRA2]
median enrichment: 0.617

YLKKTVLSAMTLYIKGVLFC [PLAAT3]
median enrichment: 13.8

LTATRMDTALAVPTLDRVSALLHTGGGAGAYSCSIKHPSYAPPQ [ACTL7A]
median enrichment: 9.25

YFMSFSISAADLC [DNAJC6]
median enrichment: 25.5

RGPSETVYALTST [KDELR3]
median enrichment: 1.55

RAPWWERL [HTT]
median enrichment: 1.54

KRRIYVLFKQEKVTLPMLSPLHNI [CDH10]
median enrichment: 4.44

SNLSPRRPEVNRHLGRGRACV [NAXD]
median enrichment: 1.3

EKPSRRKNSLSQFSKEPRILQRMCEDFPVLDGE [SAMD7]
median enrichment: 1.53

YLSGLSVL [MCOLN3]
median enrichment: 19

QTGRLDF [RPL24]
median enrichment: 0.466

YPYGE [PRKCH]
median enrichment: 0.563

WCWKRSKHWPLVSTLQPPQVPLWGDTGGPLAVTPCAWSDPRPLPPARFLLSPAWEDVSLSTSQRARGARGWTGQ [PPP2R1A]
median enrichment: 3.49

RCDQVALGRDPRVFMRHLKLIKELRLELIWCSP [KCNC2]
median enrichment: 10.9

LLSITKVYSKIIF [HNMT]
median enrichment: 7.95

QVPFPLLNIKLNSI [NSMAF]
median enrichment: 2.85

NNNNNNNNN [Asn09]
median enrichment: 0.367

RLNICSVLKLMCFVGV [FBXL4]
median enrichment: 10.3

LKKKKKKALAFSCLFC [PCDH17]
median enrichment: 25.4

YSCVVKINMRKLPCNLNLGFPCNRN [IL23R]
median enrichment: 22.3

EAWLPPESCSLKLGF [POU2AF1]
median enrichment: 0.528

QPETGGSPPARSGASSCQSSWCYPLNPSAATATVGLRVSEQERKDKLFVVPTMLRFGNPGVFPGGLRKQSL [TNFAIP3]
median enrichment: 4.84

RFHRSAFGHLLWWVLVTHFRLRFDGLNLYSLESMSCVYSTIRNLILFLLLFLQKQKLILKSIIMGWGGGCPQDMQDFCRGQHR [SETD4]
median enrichment: 8.11

LAGVFVPVSLILSRH [KCNS3]
median enrichment: 5.72

RKLLP [NOX4]
median enrichment: 0.64

RARCPSPS [PTH2]
median enrichment: 2.74

CQVLCGAEIPCRHFACSNQQDPAPRSPGAIIMQPAVLLWRGQVTFQKTPSWMGLPFCSSPHSRISNGSLL [BCL2L11]
median enrichment: 11

CVTVLDFSKTSFNTE [GABRB3]
median enrichment: 4.69

WSGKLGAFGLKGRMFPVFLDNKLGK [PKHD1]
median enrichment: 11.8

CLSTVLFS [SUDS3]
median enrichment: 5.55

ESYNHMQLWDRSLVLGTIHTHTPSLCLWLTSQKTLVNDHSRILTRIHVTDLTQ [CPAMD8]
median enrichment: 15.9

LARAPRGHLGRPREAEGHGVGGSRRVPASMVPALDLQLP
median enrichment: 5.4

GSYISPSIRGHTQESNFALLQALVEAA [ZNF337]
median enrichment: 9.72

YGF [ITSN2]
median enrichment: 0.445

LKTPHPSLLECVWPFSSFSWQHQLGCFLCVWPQVSK [DUSP6]
median enrichment: 6.83

WRPAPARMGGGVERRTPIG [NSG2]
median enrichment: 3.66

EESATNYNFTIKTGKRPGMVAHACNHSTLGG [OR6C6]
median enrichment: 6.68

SDEHG [TMEM242]
median enrichment: 1.05

LCFAEIFCSLRISETYL [SIM1]
median enrichment: 7.43

KDCDFFVKEAVRIIINNSNSLHFSQGVHCS [MAATS1]
median enrichment: 5.42

WGNKRKLSPESATSAPSIFSINALYQPQSSLFKLTPC [ZNF474]
median enrichment: 8.63

RGCQLGRKRETRP [CCND2]
median enrichment: 0.783

CFSVNLSLLVERSGACPSSQTSDL [LRRC46]
median enrichment: 5.72

SAMVSRAPHTRVYTRTMWYVARPGPGVRLGQPQLSLPLLLIQGVTRHLSLCYFWPQQEPVLGYFCPCSSQPNSGLAHPSPPPK [KCNJ11]
median enrichment: 5.63

KKPPAQLETC [METTL16]
median enrichment: 0.455

EYPRFKKRT [PPP2R1B]
median enrichment: 1.16

LKSKLVVLQLCVTFSPSAVSVQHLFHKCFVFSNTVFTTLLACICMFYTKAYTVLCEAIRSRKGIVNNIKHFYTKIICFVIRF [SLC44A5]
median enrichment: 2.32

RVT [OR2M3]
median enrichment: 0.571

YDVQRRLNKCTAE [VPS33A]
median enrichment: 0.744

PPP [Pro03]
median enrichment: 0.305

VSGIMRRPWGMN [Degron APPBP2]
median enrichment: 10.2

CGSRPGRPFARRRGMGERT [ARHGEF1]
median enrichment: 7.51

GGGGGGGG [Gly08]
median enrichment: 1.64

RHSELLAVEEHHAYL [YTHDC2]
median enrichment: 0.354

GHPQDTPMWLLDNPRAAKSCFSSLAPQVLQDRALKATPNEFSGFRLWLQPNRTHFEHPDCIFAFRKLE [C5orf46]
median enrichment: 3.29

RTF [KBTBD3]
median enrichment: 0.378

RSQLCSGQACSLRTLTTLDLELGTCGHSSSPGCIP [CIITA]
median enrichment: 42.6

SGLPLPSLLEIVNPAVCAGLIVSVL [FBXO25]
median enrichment: 6.93

KKKKKKKKKK [Lys10]
median enrichment: 1.08

YMHCSGS [STT3B]
median enrichment: 2.33

SGLVCRTAAGAPPGQIIAASDCGLYLFIPSDFFNVRYL [FBLN1]
median enrichment: 30.5

CEQQMELWERGEQWGYRESSSALPLGQPHLPAVSPGHFSTSQVEVLQGPAATCIRRTSFSA [SPATA19]
median enrichment: 2.8

LEMKKDEVLTQ [DNAJC5G]
median enrichment: 0.255

QNILCTALVISDLD [MALSU1]
median enrichment: 7.03

LPEKLCQLQGGSDFRKVV [HERPUD2]
median enrichment: 0.919

EKSYMAKRSRSKFRSHSQGNQYLPI [SNX24]
median enrichment: 1.3

LPLPFTLT [ATF6B]
median enrichment: 3.98

ELLPLSTRSSWQRELRTAAALSVRWRPTSRFCPALCG [ACVR1B]
median enrichment: 9.04

RDRALRCQGENPSSNPGYLETEKLEF [ITLN2]
median enrichment: 0.166

PPPPP [Pro05]
median enrichment: 0.529

SLYKKVGTMAAG [Degron KLHDC3]
median enrichment: 7.34

CQLLHILGPCLFSQDRLLKAEEPVLGAPSQTPKTCFHVPRSLLTSPNKGP [PSENEN]
median enrichment: 26.4

WGPGRGPGAVGT [INSYN1]
median enrichment: 5.06

SGWLSLPFSPSLSALGSVSTAGPKVKVLPLPEASWQGLSWLEVASLVPVLTPRPQRSCLPCCLSPPLCLCLRCVSHSEPPCFC [CCDC97]
median enrichment: 5.33

LAHEPTRMSSDFQPHPSGSCAKGGGRR [TREM1]
median enrichment: 0.974

RGSRRKQDTRWQA [PHGR1]
median enrichment: 3.92

YEEVSATSPPEPAVIFTAPAHLSPTCSFDPWTWYTSMWSCWARGVLCAVNSVGSCSGVGARFLPPWAEGPFPLVLCPHPPPFS [KLHDC3]
median enrichment: 5.82

ETLNILSLIFN [POLK]
median enrichment: 8.07

LLGGPGRRVPPSPCQGPGDPLPGCLRLLLRRGNAKKEKEKPRARPLPPAVHCAASSVPGLTVPLSSAPARQGTCSQPWVDLFF [NRXN2]
median enrichment: 6.99

SPRSWILQCINKRSQAGFISETIN [SGCD]
median enrichment: 39.2

TTTTTTT [Thr07]
median enrichment: 0.319

YLYHYSRSSSQHHLLATWDV [GCG]
median enrichment: 12.4

YMKLDI [ARF4]
median enrichment: 1.7

IIIIIIII [Ile08]
median enrichment: 5.38

SLFSLTYRMLV [ZNF639]
median enrichment: 6.9

RGGRTSNLPKRLPCPNPFITPSFRHPQPLLAQKENWGLRVGTQA [TNF]
median enrichment: 7.66

YKPQAPLADGRQGEKRRSSWTSETTVELRREAT [IGFL3]
median enrichment: 1.72

SWHSSPHTCSQAQMEVP [ACTL6B]
median enrichment: 0.404

CNTM [STAP1]
median enrichment: 0.724

RRLARKMPRGG [TRAPPC3L]
median enrichment: 5.87

SAPCSTPSPPHPPWAGS [MOSPD3]
median enrichment: 4.09

TSLYKKVGMGRK [Degron APPBP2]
median enrichment: 14.1

GTSPAPLRTPPRLDGWAHASHWGPGSRRWAPTLGPRGAANHTGLRPSYPAPSPSTSTFTSPPFHFFLYVFFLLETDSIHIEYN [JUNB]
median enrichment: 4.58

RSGLRRRRHRGE [Degron APPBP2]
median enrichment: 6.28

YKKRCCLGLVGGACFS [HIGD1A]
median enrichment: 3.33

YKKVGTMRGRGL [Degron APPBP2]
median enrichment: 16.9

ESHMRRTACSDQRAQRPEDKSGGDSMGMGVGCLRERTHGLGRGERCMGITFARAAYLKVTVSSGTAGDRYLLLQEINYPENST [LEXM]
median enrichment: 5.93

SQL [AMBN]
median enrichment: 0.898

QHQ [ANKRD6]
median enrichment: 0.522

GAMLPSSSSPPSTGWDRRQVPAHACLRLFPPLGQALGWKLGS [ADCYAP1R1]
median enrichment: 9.03

LFDDRDLH [VAMP4]
median enrichment: 0.625

LKG [SSBP1]
median enrichment: 0.599

YYHMFSWYVN [ABHD10]
median enrichment: 17.6

QDSQLHRRLLPGLLLGRPPACPPCVSTPPARLPAGPSTPCVHTTSNLIGADVFIFLEFLFML [DDA1]
median enrichment: 7.88

SGLDSTRALENEMTV [APCS]
median enrichment: 0.582

RACGAAGAGEASRGRVLRQELDSPTLLSSRQGPGSHILLTLERLELTPLDGKCISEKGKAAWGSPI [SLC1A7]
median enrichment: 9.89

QSTTALSS [GALNT4]
median enrichment: 0.487

SITLILWKSEQAVAVFHSSSCCVQLLPSQPFNKIILKCYPSALPFNGKMKGSDNTGGPNFVPVLCVPYLSVPVYRLCKSLV [RABL3]
median enrichment: 6.24

YRNSEVQPLENNIQEGHIDYKLMSCPICNSGS [FRRS1]
median enrichment: 25.3

CLL [ACSBG2]
median enrichment: 7.26

CDARQFLDLGGLKRPPSCLLSFSVSSFLLVFFILFSFHQPSCILALQRDRDRSSAQGFSLPLFIMGGGYHPPSQSCEESGTSF [NOTCH3]
median enrichment: 9.5

SNQFLGLTAM [BTN2A1]
median enrichment: 0.367

MALAVRVVYCGA [Degron KLHDC2]
median enrichment: 5.57

LRAGEPHILTAPGLYPGHSRDRLVVEPGGAKKASCGPRTAAVRLPMSQAVCVVTAPLSVHLQQRQRRRLPPGRFSLFIC [ZMYND19]
median enrichment: 6.85

RERTTPSLPSMDGHSSAASSATSCSQPMPGGAAIFSPHHPFTHS [EHMT2]
median enrichment: 0.484
